What was measured:
[1] = tested on: HFD-fed obese mice; experiment: Recombinant Plac9 in high-fat diet (HFD)-induced obese, diabetic (DM2) mouse model, biometric data and glucose tolerance test; format: in vivo, C57BL/6J mice; conditions: vs PBS control
Experimental: Turning to FIG. 2A, 8-week-old male C57BL/6J mice (n=8) were fed with a high-fat diet (HFD) for 12 weeks to induce a diabetes mellitus type 2 (DM2) model and then treated with 2 mg/kg (per body weight; hereinafter as “BW”) of recombinant mouse Plac9 (synthesized and purified from E. coli expressing mouse Plac9 represented by SEQ ID NO: 2; hereinafter as “mPLAC9”) once daily via intraperitoneal (i.p.) injection for 18 days to evaluate its effects on glucose uptake and tolerance in an obese, diet-induced diabetic model. Body weight (FIG. 2B), fasting blood glucose level (FIG. 2C), feeding blood glucose level (FIG. 2D) and blood insulin level (FIG. 2E) were measured at the beginning of the i.p. injection and then once every 3 days until the end of the experiment (i.e., Day 3, 6, 9, 12, 15 and 18). Another group of HFD-fed mice was injected with PBS once daily and measured with the same biometric data as in the Plac9-injected group (treatment group) once every 3 days from the beginning of the injection until the end of the experiment.
Glucose tolerance test (GTT) was also performed in both the treatment and control groups at Day 0 and Day 15 of the experiment. […] At Day 15, the overall blood glucose level was also lower in the treatment group than that of the control group over the 90-minute time course (FIGS. 2H-2I).

[2] = tested on: STZ-induced diabetic mice; experiment: Recombinant Plac9 in streptozotocin (STZ)-induced insulin-deficient diabetic mouse model, biometric data and glucose tolerance test; format: in vivo, C57BL/6J mice
Experimental: Turning to FIG. 3A, 8-week-old male C57BL/6J mice (n=8) which were fed with standard chow (STC) diet were treated with streptozotocin (STZ) for 5 days to induce diabetes. Similar to Example 1, 2 mg/kg (BW) of recombinant mPLAC9 was administered to the STZ-induced diabetic mice via i.p. injection once daily for 18 days (treatment group). In parallel, PBS was injected to STZ-induced diabetic mice for 18 days as a control group.
GTT was also performed at Day 5 and Day 15 in this STZ-induced diabetic model. […] Similar trend was observed between the treatment and control groups at Day 15 (FIGS. 3H-3I).

[3] = tested on: MIN6 pancreatic beta cells; experiment: Glucose stimulated insulin secretion assay in MIN6 cells (mouse insulin ELISA); format: cell-based; conditions: 10, 100 and 1000 nM, n=8; FIG. 5A
Experimental: (§1) To verify that the glucose homeostasis is regulated through liver or hepatocytes by overexpression of Plac9 in an insulin-independent manner, an in vitro insulin secretion assay was performed on confluent pancreatic beta cells, MIN6, in each well treated by […] of Exendin-4 or different concentrations of recombinant Plac9 of mouse origin at 10, 100 and 1000 nM (n=8) and measured the insulin content of each well by a mouse insulin ELISA kit. […] A glucose uptake assay was performed on primary hepatocytes and hepatic cell line, HepG2, treated with different concentrations (from 0.125 or 0.25 to 1.0 μM) in the presence or absence of exogenous 10 nM insulin, and the results are shown in FIGS. 5B and 5C, respectively.

[4] = tested on: primary hepatocytes; experiment: Glucose uptake assay (2DG6P) in primary hepatocytes; format: cell-based
Experimental: as §1

B1: mPLAC9: recombinant mouse Plac9 synthesized and purified from E. coli expressing mouse Plac9 represented by SEQ ID NO: 2 (protein, listed as Mus musculus)
chain: EWGQGPRDTPGRRAAESPSSPGDLAGSPGCDRHAAVQRRLDIMEETVEKTVEHLEAEVTGLLGLLEELASNLPTGPFSPKPDLLGDDGF
- body weight change ([1]; 2 mg/kg BW i.p. once daily, 18 days, FIG. 2B): no obvious weight change
- fasting blood glucose level ([1]; 2 mg/kg BW i.p. once daily, 18 days, FIG. 2C): no obvious changes
- feeding blood glucose level ([1]; 2 mg/kg BW i.p. once daily, 18 days, FIG. 2D): no obvious changes
- blood glucose level in glucose tolerance test (GTT) ([1]; Day 0, 90-minute time course, FIGS. 2F-2G): more significantly reduced
- blood insulin concentration ([1]; Day 15, 2 mg/kg BW i.p. once daily, FIG. 2E): reduced
- overall blood glucose level in glucose tolerance test (GTT) ([1]; Day 15, 90-minute time course, FIGS. 2H-2I): lower
- change in body weight ([2]; 2 mg/kg BW i.p. once daily, 18 days, treatment vs PBS control, FIG. 3B): similar
- change in fasting glucose level ([2]; 2 mg/kg BW i.p. once daily, 18 days, treatment vs PBS control, FIG. 3C): similar
- change in feeding glucose level ([2]; 2 mg/kg BW i.p. once daily, 18 days, treatment vs PBS control, FIG. 3D): similar
- overall blood glucose level in GTT ([2]; Day 0, 90-minute time course, vs PBS control, FIGS. 3F-3G): lower
- blood insulin level ([2]; Day 0 to Day 5, treatment vs PBS control, FIG. 3E): similar
- blood insulin concentration ([2]; from Day 5 till the end of the experiment, no change in control group, FIG. 3E): increased
- restoration of blood insulin level to the level measured at Day 0 ([2]; till the end of the experiment, FIG. 3E): could not be restored
- insulin secretion [3]: does not induce insulin secretion
- glucose uptake ([4]; 0.125 to 1.0 μM, with or without 10 nM insulin, FIG. 5B): enhanced by Plac9 is in a dose-dependent manner
- glucose uptake on co-administration with insulin ([4]; co-administration with 10 nM insulin, overall statement for liver or hepatocytes (primary hepatocytes and HepG2)): further enhance the glucose uptake
